Laboratory results reported in US20230390362A1, “USE OF TRIGONAL AGONIST HAVING ACTIVITIES TO ALL OF GLUCAGON, GLP-1, AND GIP RECEPTORS IN TREATMENT OF SEQUELAE FOLLOWING RESPIRATORY INFECTIOUS DISEASES” (HANMI PHARM. CO., LTD., priority 2020, published 2023).
Positions of bridges follow the written chain, without caps; N, C: chain ends. Non-standard residues stand in square brackets, D forms with d. No end group written: not given here. *: point of attachment. Acetyl(2-(4-imidazolyl)) = O=C(Cc1c[nH]cn1)*; Aib = CC(C)(N)C(=O)O

T1: human GIP receptor (human, UniProt P48546 22-466)
T1 sequence (looked up): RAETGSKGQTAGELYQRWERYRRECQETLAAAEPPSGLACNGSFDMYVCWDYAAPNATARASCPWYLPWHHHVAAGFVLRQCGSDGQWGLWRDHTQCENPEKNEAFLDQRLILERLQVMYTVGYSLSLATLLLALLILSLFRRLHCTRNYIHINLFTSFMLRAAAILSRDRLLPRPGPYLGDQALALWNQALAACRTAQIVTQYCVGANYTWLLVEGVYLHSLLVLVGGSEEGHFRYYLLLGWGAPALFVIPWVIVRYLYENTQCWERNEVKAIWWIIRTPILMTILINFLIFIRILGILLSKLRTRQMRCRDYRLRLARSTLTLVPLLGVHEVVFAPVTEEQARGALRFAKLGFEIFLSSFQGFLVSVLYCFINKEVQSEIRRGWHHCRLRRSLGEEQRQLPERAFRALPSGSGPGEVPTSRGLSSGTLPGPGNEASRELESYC

B1: trigonal agonist of SEQ ID NO: 21 (peptide)
peptide: Y[Aib]QGTFTSDYSKYLDECRAKEFVQWLLDHHPSSGQPPPS
modifications: bridge 16-20
B2: trigonal agonist of SEQ ID NO: 16 (peptide)
peptide: {Acetyl(2-(4-imidazolyl))}-GQGTFTSDLSKQMDSEAQQLFIEWLKNGGPSSGAPPPSHG
B3: trigonal agonist of SEQ ID NO: 24 (peptide)
peptide: Y[Aib]QGTFTSDYSKYLDECRAKEFVQWLKNGGPSSGAPPPS
modifications: bridge 16-20
B4: trigonal agonist of SEQ ID NO: 17 (peptide)
peptide: {Acetyl(2-(4-imidazolyl))}-GQGTFTSDLSKQMDEERAREFIEWLLAQKPSSGAPPPSHG
B5: trigonal agonist of SEQ ID NO: 23 (peptide)
peptide: Y[Aib]QGTFTSDYSKYLDECRAKEFVQWLLAQKGKKNDWKHNIT
modifications: bridge 16-20
B6: trigonal agonist of SEQ ID NO: 20 (peptide)
peptide: {Acetyl(2-(4-imidazolyl))}-GQGTFTSDLSIQYEEEAQQDFVEWLKDTGPSSGAPPPSHG
B7: trigonal agonist of SEQ ID NO: 19 (peptide)
peptide: {Acetyl(2-(4-imidazolyl))}-GQGTFTSDLSIQYDSEHQRDFIEWLKDTGPSSGAPPPSHG
B8: trigonal agonist of SEQ ID NO: 18 (peptide)
peptide: {Acetyl(2-(4-imidazolyl))}-GQGTFTSDLSKQMDSERAREFIEWLKNTGPSSGAPPPSHG
B9: trigonal agonist of SEQ ID NO: 22 (peptide)
peptide: Y[Aib]QGTFTSDYSKCLDEKRAKEFVQWLLDHHPSSGQPPPS
modifications: bridge 16-20
B10: trigonal agonist of SEQ ID NO: 3 (peptide)
peptide: H[Aib]QGTFTSDVSSYLLGQAAKQFIAWLVKGGGPSSGAPPPSC

Tests used:
Test in all cases: cell-based or functional assay
human GLP-1 receptor = human GLP-1 receptor (human, UniProt P43220 24-463)
human GCG receptor = human GCG receptor (human, UniProt P47871 26-477)
human GIP receptor = biological target: T1, human GIP receptor

human GCG receptor, sequence (P47871 26-477): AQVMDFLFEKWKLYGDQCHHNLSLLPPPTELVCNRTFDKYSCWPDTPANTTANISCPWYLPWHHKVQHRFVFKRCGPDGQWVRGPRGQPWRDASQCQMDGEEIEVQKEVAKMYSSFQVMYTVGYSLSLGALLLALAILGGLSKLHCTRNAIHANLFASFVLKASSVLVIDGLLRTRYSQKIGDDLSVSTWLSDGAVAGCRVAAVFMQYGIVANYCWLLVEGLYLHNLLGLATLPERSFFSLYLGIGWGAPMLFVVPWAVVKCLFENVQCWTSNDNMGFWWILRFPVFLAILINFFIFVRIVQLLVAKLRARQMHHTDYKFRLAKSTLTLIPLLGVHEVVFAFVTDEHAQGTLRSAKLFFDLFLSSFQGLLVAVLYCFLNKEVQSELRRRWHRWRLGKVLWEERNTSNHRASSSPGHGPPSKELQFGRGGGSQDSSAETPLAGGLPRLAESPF

| Binder | In vitro activity relative to native peptide (%), vs. GLP-1 (cAMP EC50) (human GLP-1 receptor) [%] | In vitro activity relative to native peptide (%), vs. Glucagon (cAMP EC50) (human GCG receptor) [%] | In vitro activity relative to native peptide (%), vs. GIP (cAMP EC50) (human GIP receptor) [%] |
| --- | --- | --- | --- |
| B1 | 17.8 | 267 | 22.7 |
| B2 | 2.1 | < 0.1 | < 0.1 |
| B3 | 41.2 | 9.3 | < 0.1 |
| B4 | 0.2 | < 0.1 | < 0.1 |
| B5 | 4.01 | 9.3 | < 0.1 |
| B6 | < 0.1 | < 0.1 | < 0.1 |
| B7 | < 0.1 | < 0.1 | < 0.1 |
| B8 | < 0.1 | < 0.1 | < 0.1 |
| B9 | 20.1 | 140 | 59.7 |
| B10 | 1.8 | < 0.1 | < 0.1 |
